The supplement of paper PMC7877785
± gives the uncertainty stated by the source.

Assay: self-splicing fitness, log relative to wild type (ln ratio); higher = more splicing; Tetrahymena group I intron in knt gene, E. coli kanamycin selection, DiMSum; sequences stand for … in CUCUCU…GGAGGGAAAAGUUAUCAGGCAUGCACCUGGUAGCUAGUCUUUAAACCAAUAGAUUGCAUCGGUUUAAAAGGCAAGACCGUCAAAUUGCGGGAAAGGGGUCAACAGCCGUUCAGUACCAAGUCUCAGGGGAAACUUUGAGAUGGCCUUGCAAAGGGUAUGGUAAUAAGCUGACGGACAUGGUCCUAACCACGCAGCCAAGUCCUAAGUCAACAGAUCUUCUGUUGAUAUGGAUGCAGUUCACAGACUAAAUGUCGGUCGGGGAAGAUGUAUUCUUCUCAUAAGAUAUAGUCGGACCUCUCCUUAAUGGGAGCUAGCGGAUGAAGUGAUGCAACACUGGAGCCGCUGGGAACUAAUUUGUAUGCGAAAGUAUAUUGAUUAGUUUUGGAGUACUCGUGGUCG
Outline: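 Fitness was computed with DiMSum as the error-weighted combination of replicate fold changes, kanamycin versus none, each normalised to wild type. The library randomised all eight intron nucleotides of the P1ex region, with the intron placed in the knt kanamycin-resistance gene on pET-22b(+) in E. coli BL21(DE3). Six replicate transformations were grown overnight at 37°C or 30°C on LB agar with or without 25 μg/mL kanamycin, plus 100 μg/mL carbenicillin, 50 μM IPTG and 0.2% rhamnose. Pooled colonies were amplicon-sequenced on an Illumina HiSeq 2500.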

Row | Sequence | self-splicing fitness (ln) (30 °C) | self-splicing fitness (ln) (37 °C)
1 | CGGAAGCAAUAUUACGUUCG | -2.69 ± 0.18 | -2.29 ± 0.34
2 | CGGAAGCAAUAUUACGUUUC | -4.04 ± 0.29 | -2.69 ± 0.23
3 | CGGCAGCAAUAUUACGAACA | -0.789 ± 0.096 | -0.204 ± 0.12
4 | CGGCAGCAAUAUUACGAAGU | -3.35 ± 0.28 | -0.302 ± 0.2
5 | CGGCAGCAAUAUUACGAAUG | 0.0635 ± 0.086 | -0.00804 ± 0.099
6 | CGGCAGCAAUAUUACGACAG | 0.187 ± 0.11 | -1.27 ± 0.12
7 | CGGCAGCAAUAUUACGACCC | -0.681 ± 0.19 | 0.752 ± 0.29
8 | CGGCAGCAAUAUUACGACUA | -0.68 ± 0.097 | 0.0629 ± 0.12
9 | CGGCAGCAAUAUUACGAGCC | -2.78 ± 0.24 | -1.37 ± 0.21
10 | CGGCAGCAAUAUUACGAUCG | -2.76 ± 0.18 | -1.97 ± 0.19
11 | CGGCAGCAAUAUUACGCCGG | -2.15 ± 0.17 | -2.16 ± 0.23
12 | CGGCAGCAAUAUUACGCUCA | -0.116 ± 0.15 | -0.137 ± 0.16
13 | CGGCAGCAAUAUUACGGACA | -0.835 ± 0.12 | 0.127 ± 0.11
14 | CGGCAGCAAUAUUACGGCGC | -2.64 ± 0.27 | -2.53 ± 0.24
15 | CGGCAGCAAUAUUACGGGCU | -3.81 ± 0.22 | -2.16 ± 0.24
16 | CGGCAGCAAUAUUACGGUCC | -1.34 ± 0.082 | 0.00991 ± 0.09
17 | CGGCAGCAAUAUUACGGUGG | -1.41 ± 0.09 | -0.157 ± 0.082
18 | CGGCAGCAAUAUUACGUAUU | -3.6 ± 0.16 | -3.11 ± 0.18
19 | CGGCAGCAAUAUUACGUCGU | -3.21 ± 0.2 | -2.64 ± 0.21
20 | CGGCAGCAAUAUUACGUCUC | -1.24 ± 0.065 | -0.433 ± 0.086
21 | CGGCAGCAAUAUUACGUGCG | -3 ± 0.16 | -2.54 ± 0.16
22 | CGGCAGCAAUAUUACGUGGG | -3.46 ± 0.14 | -2.24 ± 0.11
23 | CGGCAGCAAUAUUACGUUGU | -2.18 ± 0.11 | -2.68 ± 0.19
24 | CGGGAGCAAUAUUACGAACG | -4.35 ± 0.24 | -3 ± 0.23
25 | CGGGAGCAAUAUUACGAAUA | -2.55 ± 0.36 | -2.52 ± 0.39

Row | Sequence | self-splicing fitness (ln) (30 °C) | self-splicing fitness (ln) (37 °C)
26 | CGGGAGCAAUAUUACGACCA | -1.08 ± 0.31 | 
27 | CGGGAGCAAUAUUACGAGAC | -3.18 ± 0.45 | -2.45 ± 0.44
28 | CGGGAGCAAUAUUACGAUAU | -3.65 ± 0.35 | 
29 | CGGGAGCAAUAUUACGAUGU | -2.47 ± 0.39 | -2.53 ± 0.39
30 | CGGGAGCAAUAUUACGCAAA |  | -2.01 ± 0.35
31 | CGGGAGCAAUAUUACGCAAG | -3.14 ± 0.23 | -2.13 ± 0.29
32 | CGGGAGCAAUAUUACGCAGU |  | -1.82 ± 0.29
33 | CGGGAGCAAUAUUACGCAUA | -2.61 ± 0.37 | -1.96 ± 0.35
34 | CGGGAGCAAUAUUACGCGCG |  | -0.901 ± 0.27
35 | CGGGAGCAAUAUUACGCGUU | -1.22 ± 0.23 | 
36 | CGGGAGCAAUAUUACGCUGG | -4.21 ± 0.42 | -2 ± 0.3
37 | CGGGAGCAAUAUUACGGCAG | -2.71 ± 0.21 | -1.12 ± 0.26
38 | CGGGAGCAAUAUUACGGGCU | -3.85 ± 0.34 | -2.5 ± 0.41
39 | CGGGAGCAAUAUUACGUACG | -2.98 ± 0.11 | -1.53 ± 0.097
40 | CGGGAGCAAUAUUACGUAGA | -3.97 ± 0.47 | -1.96 ± 0.26
41 | CGGGAGCAAUAUUACGUAGU |  | -1.78 ± 0.29
42 | CGGGAGCAAUAUUACGUUGG | -3.83 ± 0.22 | -2.52 ± 0.2
43 | CGGUAGCAAUAUUACGACCA | -0.494 ± 0.17 | -0.426 ± 0.14
44 | CGGUAGCAAUAUUACGACUA | -0.298 ± 0.14 | 0.0316 ± 0.16
45 | CGGUAGCAAUAUUACGAGCG | -0.978 ± 0.19 | -0.291 ± 0.14
46 | CGGUAGCAAUAUUACGAUAG | -0.323 ± 0.11 | 0.279 ± 0.14
47 | CGGUAGCAAUAUUACGAUUA | -2.71 ± 0.31 | 0.554 ± 0.2
48 | CGGUAGCAAUAUUACGCCAA | -2.52 ± 0.21 | -2.6 ± 0.3
49 | CGGUAGCAAUAUUACGCGAG | -3.58 ± 0.31 | -2.36 ± 0.4
50 | CGGUAGCAAUAUUACGCGGA | -2.54 ± 0.12 | -1.26 ± 0.097

Row | Sequence | self-splicing fitness (ln) (30 °C) | self-splicing fitness (ln) (37 °C)
51 | CGGUAGCAAUAUUACGCGGC | -3.99 ± 0.24 | -2.79 ± 0.25
52 | CGGUAGCAAUAUUACGCGGG | -2.49 ± 0.18 | -1.88 ± 0.24
53 | CGGUAGCAAUAUUACGCGUG | -2.11 ± 0.15 | -1.82 ± 0.14
54 | CGGUAGCAAUAUUACGCUCC | -2.2 ± 0.38 | 
55 | CGGUAGCAAUAUUACGCUUC |  | -0.894 ± 0.24
56 | CGGUAGCAAUAUUACGGAAC |  | -2.37 ± 0.36
57 | CGGUAGCAAUAUUACGGCCC | -0.507 ± 0.2 | 0.668 ± 0.37
58 | CGGUAGCAAUAUUACGGCGC | -2.04 ± 0.23 | -1.95 ± 0.24
59 | CGGUAGCAAUAUUACGGCGG | 0.494 ± 0.093 | 0.0118 ± 0.096
60 | CGGUAGCAAUAUUACGGGAC | -3.63 ± 0.47 | -4.61 ± 0.46
61 | CGGUAGCAAUAUUACGGGGA | -2.53 ± 0.24 | -3.03 ± 0.47
62 | CGGUAGCAAUAUUACGGGUC | -4.51 ± 0.46 | -4.33 ± 0.39
63 | CGGUAGCAAUAUUACGGUCA | -0.916 ± 0.092 | -0.275 ± 0.084
64 | CGGUAGCAAUAUUACGGUGA | -3.76 ± 0.41 | -0.848 ± 0.17
65 | CGGUAGCAAUAUUACGGUUA | -2.23 ± 0.13 | -1.3 ± 0.11
66 | CGGUAGCAAUAUUACGUCUC | -2.46 ± 0.12 | -1.86 ± 0.13
67 | CGGUAGCAAUAUUACGUGUU | -4.12 ± 0.28 | -3.09 ± 0.27
68 | CGUAAGCAAUAUUACGAAAG | -1.98 ± 0.13 | -0.821 ± 0.12
69 | CGUAAGCAAUAUUACGAACG | -3.04 ± 0.18 | -1.76 ± 0.22
70 | CGUAAGCAAUAUUACGACAG | -0.247 ± 0.11 | -0.867 ± 0.14
71 | CGUAAGCAAUAUUACGACGG | 0.0203 ± 0.061 | -0.0967 ± 0.082
72 | CGUAAGCAAUAUUACGACUG | -0.564 ± 0.081 | 0.421 ± 0.13
73 | CGUAAGCAAUAUUACGAGGG | -2.74 ± 0.19 | -1.86 ± 0.24
74 | CGUAAGCAAUAUUACGAUCG | -1.03 ± 0.11 | -0.0852 ± 0.13
75 | CGUAAGCAAUAUUACGCACC |  | -0.957 ± 0.39

Row | Sequence | self-splicing fitness (ln) (30 °C) | self-splicing fitness (ln) (37 °C)
76 | CGUAAGCAAUAUUACGCAUG | -1.88 ± 0.13 | -0.863 ± 0.13
77 | CGUAAGCAAUAUUACGCCGU | -3.89 ± 0.26 | -2.65 ± 0.21
78 | CGUAAGCAAUAUUACGCUCG | -1.8 ± 0.17 | -0.572 ± 0.23
79 | CGUAAGCAAUAUUACGGAAC |  | -1.39 ± 0.39
80 | CGUAAGCAAUAUUACGGCGG | -0.217 ± 0.072 | -0.126 ± 0.096
81 | CGUAAGCAAUAUUACGGCUG | -0.231 ± 0.062 | -0.177 ± 0.095
82 | CGUAAGCAAUAUUACGGCUU | -3.69 ± 0.21 | -2.02 ± 0.25
83 | CGUAAGCAAUAUUACGUACU | -0.922 ± 0.098 | -0.936 ± 0.11
84 | CGUAAGCAAUAUUACGUCCC | -3.09 ± 0.38 | -1.21 ± 0.29
85 | CGUAAGCAAUAUUACGUGAA | -3.19 ± 0.14 | -1.61 ± 0.15
86 | CGUAAGCAAUAUUACGUGGA | -2.93 ± 0.2 | -2.44 ± 0.24
87 | CGUAAGCAAUAUUACGUGUA | -3.25 ± 0.22 | -0.592 ± 0.13
88 | CGUAAGCAAUAUUACGUUGU | -3.29 ± 0.18 | -2.53 ± 0.22
89 | CGUCAGCAAUAUUACGAAGG | -0.693 ± 0.074 | -0.652 ± 0.11
90 | CGUCAGCAAUAUUACGACAG | -0.576 ± 0.097 | 0.297 ± 0.13
91 | CGUCAGCAAUAUUACGAGGC | -4.66 ± 0.36 | -3.2 ± 0.47
92 | CGUCAGCAAUAUUACGAUAU | -2.13 ± 0.13 | -0.978 ± 0.13
93 | CGUCAGCAAUAUUACGCAAC | -3.74 ± 0.3 | -2.47 ± 0.23
94 | CGUCAGCAAUAUUACGCAGG | -3.85 ± 0.3 | -1.69 ± 0.18
95 | CGUCAGCAAUAUUACGCCGG | -1.69 ± 0.12 | -1.27 ± 0.17
96 | CGUCAGCAAUAUUACGCUAA | -2.28 ± 0.18 | -0.0328 ± 0.15
97 | CGUCAGCAAUAUUACGCUCG | -2.69 ± 0.18 | -1.63 ± 0.15
98 | CGUCAGCAAUAUUACGCUUA | -2.18 ± 0.23 | -1.14 ± 0.17
99 | CGUCAGCAAUAUUACGGACC | -0.189 ± 0.17 | 0.292 ± 0.17
